# Tests used:
# [1] = tested on: human primary lymphatic endothelial cells (HMVEC-LLy cells); assay: MTT cell viability assay, lymphatic endothelial cells; format: cell-based
# Protocol: To determine the function of lamstatin, human primary lymphatic endothelial cells (HMVEC-LLy cells) were exposed to various concentrations of lamstatin and an MTT assay was performed. As a comparison, commercially available tumstatin was used. Specifically, to assess cell viability 4×10^3 HMVEC-LLy cells were seeded per well in 100 μl complete EBM-2 media (with bullet kit, Lonza) and incubated for 2 hrs at 37° C., 5% CO2. After this period lamstatin, tumstatin and respective vehicles (1 nM EDTA, pH 3.0) were prepared in complete EBM-2 as serial dilutions in a separate plate and added. […] After 6 h of further incubation cells were lysed overnight with 10% SDS/0.01 M HCl and measured the following day in a plate reader at 570 nm.
# The MTT assay was performed as described above.
# fibroblasts (3567) = assay: MTT cell viability assay, fibroblasts; format: cell-based; conditions: increasing concentrations, 72 hrs
# integrin α5 = target: T1, integrin α5 (Homo sapiens, UniProt P05556+P08648); assay: Integrin binding of HMVEC-LLy cells on antibody-coated plates; format: cell-based; conditions: lamstatin 10 μg/ml, CP17 5 μM, 1 h
# T1 construct: endogenous in cells; host or cells: HMVEC-LLy (human primary lymphatic endothelial cells)
# T1 sequence (P08648 42-894 limits assumed): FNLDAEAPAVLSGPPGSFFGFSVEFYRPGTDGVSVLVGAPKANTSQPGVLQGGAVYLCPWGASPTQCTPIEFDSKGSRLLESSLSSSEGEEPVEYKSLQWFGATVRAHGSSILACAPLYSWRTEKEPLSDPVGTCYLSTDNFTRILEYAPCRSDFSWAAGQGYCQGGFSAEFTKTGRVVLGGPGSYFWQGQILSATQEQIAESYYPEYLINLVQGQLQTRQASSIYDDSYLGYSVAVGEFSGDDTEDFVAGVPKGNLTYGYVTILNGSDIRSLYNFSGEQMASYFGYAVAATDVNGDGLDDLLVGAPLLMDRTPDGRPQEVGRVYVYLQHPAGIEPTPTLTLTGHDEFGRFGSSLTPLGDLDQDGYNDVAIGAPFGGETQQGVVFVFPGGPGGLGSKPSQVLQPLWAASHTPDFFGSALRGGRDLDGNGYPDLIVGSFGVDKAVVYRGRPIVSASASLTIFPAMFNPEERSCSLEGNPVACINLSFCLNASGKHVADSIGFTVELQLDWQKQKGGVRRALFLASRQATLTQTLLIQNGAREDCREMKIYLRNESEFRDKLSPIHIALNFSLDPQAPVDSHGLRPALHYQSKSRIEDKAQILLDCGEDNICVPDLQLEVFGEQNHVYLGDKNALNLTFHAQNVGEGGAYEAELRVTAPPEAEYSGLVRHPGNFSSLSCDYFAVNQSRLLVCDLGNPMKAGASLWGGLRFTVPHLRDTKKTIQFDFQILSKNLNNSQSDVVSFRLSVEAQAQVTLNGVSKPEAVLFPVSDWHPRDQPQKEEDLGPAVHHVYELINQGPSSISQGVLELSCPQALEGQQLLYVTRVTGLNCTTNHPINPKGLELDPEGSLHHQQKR
# T1 sequence (P08648 895-1049 limits assumed): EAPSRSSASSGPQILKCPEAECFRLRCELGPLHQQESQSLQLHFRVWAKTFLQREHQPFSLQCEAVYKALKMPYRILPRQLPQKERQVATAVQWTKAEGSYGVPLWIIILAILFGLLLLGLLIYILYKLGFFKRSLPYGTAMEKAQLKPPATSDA
# T1 sequence (P05556 21-798): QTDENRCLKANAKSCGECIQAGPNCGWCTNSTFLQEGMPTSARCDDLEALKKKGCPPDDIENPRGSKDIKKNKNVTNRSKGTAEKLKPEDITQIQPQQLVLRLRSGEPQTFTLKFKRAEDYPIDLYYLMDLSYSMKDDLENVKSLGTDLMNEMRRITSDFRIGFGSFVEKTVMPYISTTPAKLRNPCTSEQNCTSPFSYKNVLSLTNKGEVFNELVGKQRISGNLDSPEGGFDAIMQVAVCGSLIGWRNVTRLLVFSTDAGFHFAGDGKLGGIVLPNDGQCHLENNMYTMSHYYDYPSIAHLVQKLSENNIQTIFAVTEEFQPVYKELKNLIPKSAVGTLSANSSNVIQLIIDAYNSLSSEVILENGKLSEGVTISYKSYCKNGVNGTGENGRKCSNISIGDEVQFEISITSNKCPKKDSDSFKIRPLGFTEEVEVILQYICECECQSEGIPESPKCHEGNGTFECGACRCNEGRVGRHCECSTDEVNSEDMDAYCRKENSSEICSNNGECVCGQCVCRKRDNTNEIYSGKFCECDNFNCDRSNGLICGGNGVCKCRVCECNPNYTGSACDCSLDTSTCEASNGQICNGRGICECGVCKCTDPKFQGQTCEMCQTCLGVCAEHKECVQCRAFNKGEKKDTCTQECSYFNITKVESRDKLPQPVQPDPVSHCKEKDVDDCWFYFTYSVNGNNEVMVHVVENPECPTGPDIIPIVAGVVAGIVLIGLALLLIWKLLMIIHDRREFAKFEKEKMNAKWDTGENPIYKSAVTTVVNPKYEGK
# Protocol: (§1) Antibodies for integrin α5 (MAB1956Z; MAB1953Z), integrin β1 (MAB2253Z) and integrin β3 (MAB1957Z) (all Millipore, USA) were coated to 96 well tissue culture plates (Nunc, USA) at a concentration of 10 μg/mL overnight at 4° C. in sterile coating buffer (50 mM Na2CO3, 50 mM NaHCO3, pH 9.6). Plates then were blocked with sterile 1% BSA/PBS for 1 h at 37° C. and washed twice with EBM-2 MV (Lonza, Basel, Switzerland). MMVEC-LLy cells were carefully removed from culture flasks with non-enzymatic detachment solution (Trevigen, Md., USA) and washed twice with EBM-2 (Lonza, Basel, Switzerland). Volume was adjusted to a cell concentration of 50,000 cells/100 μL and divided into aliquots for treatment with recombinant lamstatin (10 μg/ml), CP17 (5 μM) or vehicle (1 nM EDTA, pH 3.5) only. Cells were then transferred to the antibody-coated plates and incubated for 1 h at 37° C. Wells were then washed with HANKS twice to remove unbound cells and fixed with 4% paraformaldehyde (in PBS) for 15 min at room temperature. Wells thereafter were photographed with an Olypmus CAMEDIA C-4000 camera mounted to an Olympus CK2 microscope. Pictures were divided into 25 segments and cells of 5 center-near quadrants were counted and averaged. […] Using a similar approach, the inventors observed no expression of integrin α4 on the surface of HMVEC-LLy cells (data not shown).
# integrin β1 = target: T2, integrin β1 (Homo sapiens, UniProt P05556+P08648); assay: as above; format: cell-based; conditions: lamstatin 10 μg/ml, CP17 5 μM, 1 h
# T2 construct: endogenous in cells; host or cells: HMVEC-LLy (human primary lymphatic endothelial cells)
# T2 sequence (P05556 21-798): as above
# T2 sequence (P08648 42-894 limits assumed): as the sequence (P08648 42-894 limits assumed) above
# T2 sequence (P08648 895-1049 limits assumed): as the sequence (P08648 895-1049 limits assumed) above
# Protocol: as §1
# integrin β3 = target: T3, integrin β3 (Homo sapiens, UniProt P05106); assay: as above; format: cell-based; conditions: lamstatin 10 μg/ml, CP17 5 μM, 1 h
# T3 construct: endogenous in cells; host or cells: HMVEC-LLy (human primary lymphatic endothelial cells)
# T3 sequence (P05106 27-788): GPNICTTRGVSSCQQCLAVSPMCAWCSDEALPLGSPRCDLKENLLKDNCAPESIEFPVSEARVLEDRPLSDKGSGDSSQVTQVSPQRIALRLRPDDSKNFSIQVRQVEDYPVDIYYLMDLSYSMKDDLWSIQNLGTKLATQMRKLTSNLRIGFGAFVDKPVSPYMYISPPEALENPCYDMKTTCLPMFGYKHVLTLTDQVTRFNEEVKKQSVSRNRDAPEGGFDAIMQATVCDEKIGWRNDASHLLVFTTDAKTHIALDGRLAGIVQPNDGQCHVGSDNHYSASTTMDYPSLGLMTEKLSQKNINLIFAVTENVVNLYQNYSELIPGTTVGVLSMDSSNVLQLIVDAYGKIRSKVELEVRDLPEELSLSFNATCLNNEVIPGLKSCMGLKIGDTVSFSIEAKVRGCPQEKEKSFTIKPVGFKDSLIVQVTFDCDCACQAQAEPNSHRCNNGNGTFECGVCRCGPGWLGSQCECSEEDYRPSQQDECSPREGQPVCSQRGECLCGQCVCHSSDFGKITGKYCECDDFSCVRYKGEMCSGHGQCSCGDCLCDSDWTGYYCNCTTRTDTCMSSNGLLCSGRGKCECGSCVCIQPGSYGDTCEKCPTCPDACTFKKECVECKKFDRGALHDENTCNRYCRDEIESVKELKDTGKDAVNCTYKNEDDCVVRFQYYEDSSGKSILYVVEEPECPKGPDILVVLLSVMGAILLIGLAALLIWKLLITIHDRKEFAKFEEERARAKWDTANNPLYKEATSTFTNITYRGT
# T3 sequence (P06756 31-889 limits assumed, further chain): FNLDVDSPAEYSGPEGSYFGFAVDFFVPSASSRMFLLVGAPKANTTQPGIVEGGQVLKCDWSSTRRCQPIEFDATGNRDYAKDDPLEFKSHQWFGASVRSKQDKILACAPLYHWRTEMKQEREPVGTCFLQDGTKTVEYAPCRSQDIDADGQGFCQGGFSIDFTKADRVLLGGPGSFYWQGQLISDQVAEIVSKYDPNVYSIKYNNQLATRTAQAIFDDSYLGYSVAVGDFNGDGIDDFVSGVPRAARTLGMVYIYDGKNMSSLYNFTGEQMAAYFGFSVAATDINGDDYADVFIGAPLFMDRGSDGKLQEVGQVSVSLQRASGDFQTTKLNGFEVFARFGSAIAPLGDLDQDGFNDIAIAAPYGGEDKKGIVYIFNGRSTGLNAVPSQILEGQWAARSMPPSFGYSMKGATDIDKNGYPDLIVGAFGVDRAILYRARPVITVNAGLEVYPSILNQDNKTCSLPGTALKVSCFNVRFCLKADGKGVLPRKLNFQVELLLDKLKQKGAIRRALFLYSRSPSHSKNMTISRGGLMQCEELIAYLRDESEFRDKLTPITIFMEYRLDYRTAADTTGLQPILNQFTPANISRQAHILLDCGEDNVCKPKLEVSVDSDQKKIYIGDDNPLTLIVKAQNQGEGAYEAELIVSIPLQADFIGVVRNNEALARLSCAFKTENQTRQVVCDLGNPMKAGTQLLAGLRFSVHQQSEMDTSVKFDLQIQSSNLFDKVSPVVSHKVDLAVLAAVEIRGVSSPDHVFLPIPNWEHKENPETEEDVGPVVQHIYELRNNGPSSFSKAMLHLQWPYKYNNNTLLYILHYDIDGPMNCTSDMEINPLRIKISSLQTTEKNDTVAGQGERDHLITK
# T3 sequence (P06756 891-1048 limits assumed, further chain): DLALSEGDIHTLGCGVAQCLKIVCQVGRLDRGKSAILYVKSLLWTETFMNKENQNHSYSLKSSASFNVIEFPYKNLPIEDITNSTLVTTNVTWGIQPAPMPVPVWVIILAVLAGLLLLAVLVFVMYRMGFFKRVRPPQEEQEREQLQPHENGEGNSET
# Protocol: as §1
# HMVEC-LLy cells = assay: Tube formation on Matrigel; format: cell-based, human; conditions: 24 hrs, n=2
# Protocol: To assess formation of tubular structures, 48 well plates were coated with 130 μL Matrigel® (BD Bioscience), which was solidified at 37° C. over 45 min. 2×10^4 HMVEC-LLy cells in complete EBM-2 (500 μL) were seeded per well and allowed to attach for 30 min, before lamstatin, tumstatin, CP17 or vehicle was added to the wells. Photos were taken with a Kodak Digital Camera every 2 hrs. Tube formation peaked at 24 hrs, at which time tubular structures were further analysed to determine length (in pixels) and number of tubes per high power field (HPF) area (px^2). The HPF was divided in nine regions of equal size and tubes per region were counted. Mean and SEM were calculated and plotted.
# epithelial cells (A549) = assay: MTT cell viability assay, epithelial cells; format: cell-based; conditions: increasing concentrations, 72 hrs
# [2] = tested on: lymphatic endothelial cells
# Protocol: The MTT assay was performed as described above. […] To differentiate between antiproliferative and cytotoxic effects, cells were counted 72 hrs after treatment with various concentrations of lamstatin.
molecule,measurement,setting,value
"lamstatin: NC1 domain of the α5 chain of collagen type IV; human amino acid sequence SEQ ID NO:1; recombinant (protein, listed as Homo sapiens) GFLITRHSQTTDAPQCPQGTLQVYEGFSLLYVQGNKRAHGQDLGTAGSCLRRFSTMPFMFCNINNVCNFASRNDYSYWLSTPEPMPMSMQPLKGQSIQPFISRCAVCEAPAVVIAVHSQTIQIPHCPQGWDSLWIGYSFMMHTSAGAEGSGQALASPGSCLEEFRSAPFIECHGRGTCNYYANSYSFWLATVDVSDMFSKPQSETLKAGDLRTRISRCQVCMKRT",cell viability (MTT),"[1]; 24 hrs, data not shown",reduced cell viability
same,cell viability (MTT),"[1]; increasing concentrations, 72 hrs",decreased cell viability
same,cell viability (MTT),fibroblasts (3567),only lymphatic endothelial cells responded
same,cell binding in presence of monoclonal antibody against integrin α5,integrin α5,significantly inhibited cell binding
same,cell binding in presence of monoclonal antibody against integrin β1,integrin β1,significantly inhibited cell binding
same,cell binding in presence of monoclonal antibody against integrin β3,integrin β3,no effect on binding
same,numbers of tube-like structures formed,HMVEC-LLy cells,reduce in a concentration related manner
same,cell viability (MTT),epithelial cells (A549),only lymphatic endothelial cells responded
same,viable cells (trypan blue exclusion),[2],no cytotoxic effect
same,cell count,"[2]; 10 μg/mL, 72 hrs after treatment, data not shown",anti-proliferative effect was observed

# From US20120190612A1, “METHODS OF TREATMENT” (CRC FOR ASTHMA AND AIRWAYS LTD., priority 2009, published 2012)
